Source: US20180086841A1

What was measured:
E9A = assay: flow cytometry on CHO-K1 transfectants, left sub-column
F28A = assay: as above
G16A = assay: as above
H60A = assay: as above
N88A = assay: as above
P8A = assay: as above
Q15A = assay: as above
Q41A = assay: as above
Q91A = assay: as above
R10A = assay: as above
R37A = assay: as above
V30A = assay: as above
W13A = assay: as above
[1] = target: Macaca mulatta CD27 (mmCD27) (Macaca mulatta (rhesus) / Macaca fascicularis (cynomolgus)); assay: flow cytometry MFI, CD8+ T cells in rhesus peripheral blood, n=4
Sequence of Macaca mulatta CD27 (mmCD27) (Macaca mulatta (rhesus) / Macaca fascicularis (cynomolgus)) (P26842 other isoform, or with tags, fused parts or gaps): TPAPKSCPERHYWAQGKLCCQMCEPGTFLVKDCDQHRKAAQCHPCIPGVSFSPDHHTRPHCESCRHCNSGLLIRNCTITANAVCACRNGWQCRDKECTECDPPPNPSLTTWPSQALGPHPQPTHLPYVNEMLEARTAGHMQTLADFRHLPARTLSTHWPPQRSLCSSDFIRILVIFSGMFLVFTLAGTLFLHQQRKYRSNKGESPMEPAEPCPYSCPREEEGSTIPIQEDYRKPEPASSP

Sequence of 1F5-hIgG1 (antibody) (VH): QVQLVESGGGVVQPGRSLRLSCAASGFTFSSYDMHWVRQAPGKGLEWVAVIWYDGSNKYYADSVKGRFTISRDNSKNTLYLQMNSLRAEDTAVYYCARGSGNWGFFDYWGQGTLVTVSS
Sequence of 1F5-hIgG1 (antibody) (VL): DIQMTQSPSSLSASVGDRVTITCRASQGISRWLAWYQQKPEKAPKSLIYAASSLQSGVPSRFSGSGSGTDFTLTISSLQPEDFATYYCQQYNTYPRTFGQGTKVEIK
Sequence of Q91A (receptor chain, as listed by the source Q91A Q91A limits assumed): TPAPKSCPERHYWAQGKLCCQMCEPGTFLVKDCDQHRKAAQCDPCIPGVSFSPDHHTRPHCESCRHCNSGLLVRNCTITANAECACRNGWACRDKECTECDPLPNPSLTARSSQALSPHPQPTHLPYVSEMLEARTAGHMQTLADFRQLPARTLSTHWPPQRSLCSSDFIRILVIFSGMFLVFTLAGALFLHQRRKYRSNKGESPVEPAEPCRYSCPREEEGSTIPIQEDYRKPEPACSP
Sequence of Q41A (receptor chain, as listed by the source Q41A Q41A limits assumed): as the sequence (receptor chain, as listed by the source Q91A Q91A limits assumed) above, with Q41A, A91Q counted along it
Sequence of P8A (receptor chain, as listed by the source limits assumed): as the sequence (receptor chain, as listed by the source Q91A Q91A limits assumed) above, with P8A, A91Q counted along it
Sequence of F28A (receptor chain, as listed by the source F28A F28A limits assumed): as the sequence (receptor chain, as listed by the source Q91A Q91A limits assumed) above, with F28A, A91Q counted along it
Sequence of Q15A (receptor chain, as listed by the source Q15A Q15A limits assumed): as the sequence (receptor chain, as listed by the source Q91A Q91A limits assumed) above, with Q15A, A91Q counted along it
Sequence of G16A (receptor chain, as listed by the source G16A G16A limits assumed): as the sequence (receptor chain, as listed by the source Q91A Q91A limits assumed) above, with G16A, A91Q counted along it
Sequence of N88A (receptor chain, as listed by the source N88A N88A limits assumed): as the sequence (receptor chain, as listed by the source Q91A Q91A limits assumed) above, with N88A, A91Q counted along it
Sequence of W13A (receptor chain, as listed by the source W13A W13A limits assumed): as the sequence (receptor chain, as listed by the source Q91A Q91A limits assumed) above, with W13A, A91Q counted along it
Sequence of E9A (receptor chain, as listed by the source limits assumed): as the sequence (receptor chain, as listed by the source Q91A Q91A limits assumed) above, with E9A, A91Q counted along it
Sequence of H60A (receptor chain, as listed by the source H60A H60A limits assumed): as the sequence (receptor chain, as listed by the source Q91A Q91A limits assumed) above, with H60A, A91Q counted along it
Sequence of V30A (receptor chain, as listed by the source V30A V30A limits assumed): as the sequence (receptor chain, as listed by the source Q91A Q91A limits assumed) above, with V30A, A91Q counted along it
Sequence of R37A (receptor chain, as listed by the source R37A R37A limits assumed): as the sequence (receptor chain, as listed by the source Q91A Q91A limits assumed) above, with R37A, A91Q counted along it
Sequence of R10A (receptor chain, as listed by the source R10A R10A limits assumed): as the sequence (receptor chain, as listed by the source Q91A Q91A limits assumed) above, with R10A, A91Q counted along it

1F5-hIgG1 (antibody)
binding, WT hCD27 = 100 (GM FITC) (E9A): 95.4% | binding, WT hCD27 = 100 (GM FITC) (F28A): 113% | binding, WT hCD27 = 100 (GM FITC) (G16A): 96% | binding, WT hCD27 = 100 (GM FITC) (H60A): 176% | binding, WT hCD27 = 100 (GM FITC) (N88A): 153% | binding, WT hCD27 = 100 (GM FITC) (P8A): 82.5% | binding, WT hCD27 = 100 (GM FITC) (Q15A): 99% | binding, WT hCD27 = 100 (GM FITC) (Q41A): 104% | binding, WT hCD27 = 100 (GM FITC) (Q91A): 156% | binding, WT hCD27 = 100 (GM FITC) (R10A): 105% | binding, WT hCD27 = 100 (GM FITC) (R37A): 109% | binding, WT hCD27 = 100 (GM FITC) (V30A): 171% | binding, WT hCD27 = 100 (GM FITC) (W13A): 89.5% | EC50 [1]: 1.92 nM
